{"source": "patent US6194458A", "about": "“Benzamide potassium channel inhibitors” (Merck & Co., Inc., priority 1999, dated 2001)", "origin": "cited, not measured here", "molecular_target": "T1, Kv 1.3 channels (Homo sapiens, UniProt P22001)", "T1 construct": "expressed in transfected cells; host or cells: CHO cells", "T1 sequence (P22001 whole entry)": "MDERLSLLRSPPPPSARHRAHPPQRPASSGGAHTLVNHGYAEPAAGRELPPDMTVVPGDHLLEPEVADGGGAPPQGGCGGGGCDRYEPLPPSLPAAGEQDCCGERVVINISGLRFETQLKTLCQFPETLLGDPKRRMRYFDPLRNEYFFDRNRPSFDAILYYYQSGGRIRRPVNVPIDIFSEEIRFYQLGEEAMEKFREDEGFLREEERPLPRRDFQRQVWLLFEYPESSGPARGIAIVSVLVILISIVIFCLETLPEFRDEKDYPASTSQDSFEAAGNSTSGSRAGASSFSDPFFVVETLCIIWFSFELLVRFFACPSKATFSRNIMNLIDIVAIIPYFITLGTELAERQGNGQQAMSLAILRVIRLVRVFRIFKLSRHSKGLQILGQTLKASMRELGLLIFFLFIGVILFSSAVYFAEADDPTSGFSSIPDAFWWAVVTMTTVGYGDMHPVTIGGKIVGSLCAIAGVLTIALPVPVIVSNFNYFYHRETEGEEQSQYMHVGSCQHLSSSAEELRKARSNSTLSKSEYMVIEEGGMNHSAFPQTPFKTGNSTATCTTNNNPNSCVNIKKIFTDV", "conditions": "blocker of Kv 1.3 channels; CHO cells transfected with Kv 1.3; stated in the method description", "note": "pIC50: −log10 of the molar value."}
{"substance": "margatoxin (TIINVKCTSPKQCLPPCKAQFGQSAGAKCMNGKCKCYPH; UniProt P40755 1-39, looked up)", "values": [{"measurement": "pIC50", "result": 10.00}]}
